Measured values: patent US10005838B2, “Milk fat globule epidermal growth factor 8 regulates fatty acid uptake” (REGENTS OF THE UNIVERSITY OF CALIFORNIA, priority 2013, dated 2018)

Legend:
[1] = system: HepG2 cells; test: Fatty acid uptake in HepG2 cells; assay type: cell-based; conditions: HepG2 human hepatocellular carcinoma cell line
[2] = system: antral smooth muscle; test: Force of antral smooth muscle ring contraction; set-up: species or system mouse; conditions: addition of rMfge8
[3] = system: 3T3-L1 adipocytes; test: Fluorescent fatty acid uptake assay in 3T3-L1 adipocytes; assay type: cell-based, mouse
Experimental: Uptake of fatty acids by differentiated 3T3-L1 adipocytes or primary mouse adipocytes was assessed using a QBT Fatty Acid Uptake Kit (Molecular Devices). Cells were plated in triplicate in 96-well plates at a concentration of 25,000 cells per well in 100 μl of DMEM/10% FCS. Plates were centrifuged at 1000 rpm for 4 minutes and incubated at 37° Celsius for 4-5 hours. Cells were then serum deprived for 1 hour before treatment with recombinant proteins for 30 minutes followed by the addition of QBT Fatty Acid Uptake solution. […] Plates were incubated in a fluorescent plate reader at 37° Celsius and kinetic readings were acquired every 20 seconds for 30 minutes. Fluorescence values were plotted against time and data was expressed as relative fluorescent units per minutes×10^3. […]

[4] = system: cardiac myocytes; test: Fatty acid uptake in primary cardiac myocytes; assay type: cell-based, mouse
[5] = system: 3T3-L1 adipocytes; test: Triglyceride content of 3T3-L1 adipocytes; assay type: cell-based, mouse; conditions: 3T3-L1 cells; 2, 4, 6, and 8 days after treatment; 10 μg/ml
Experimental: 3T3-L1 (Zen-Bio) fibroblasts were differentiated into adipocytes as described previously (Liao, J. et al., J Lipid Res 46, 597-602 (2005)). Briefly, 3T3-L1 fibroblasts were cultured to confluence on 10 cm tissue culture plates or in 6-well tissue culture dishes in DMEM supplemented with 10% FBS and 25 mM HEPES (normal medium). 2 days after reaching confluence, media was change and 3-isobutyl-1methylxanthine (Calbiochem), dexamethasone (Sigma), and insulin (Sigma) were added to the normal medium at concentrations of 0.5 mM, 1 μM, and 5 μg/mL, respectively, to induce adipocyte differentiation. After 2 days (and every 2 days thereafter), media was replaced with normal medium supplemented with 5 μg/mL insulin. Cells were harvested for use 6-10 days after differentiation. The human hepatocellular carcinoma cell line HepG2 was a generous gift of Dr. Ethan Weiss. Cells were propagated in Eagle's MEM supplemented with 10% fetal bovine serum.

[6] = system: primary WT adipocytes; test: Glucose uptake assay (2-NBDG) in primary WT adipocytes; assay type: cell-based, mouse; conditions: insulin 1 μM
Experimental: Uptake of […] by primary cells and cell lines was assessed using the fluorescent D-glucose analog 2-[N-(7-nitrobenz-2-oxa-1,3-diazol-4-yl)amino]-2-deoxy-D-glucose (2-NBDG) (Invitrogen). 2-NBDG has been successfully used as an alternative to 2-deoxyglucose in the measurement of glucose uptake in multiple cell types. Cells were plated in triplicate in 96-well plates at a concentration of 25,000 cells per well in 100 μl of DMEM/10% FCS. Plates were centrifuged at 1000 rpm for 4 minutes and incubated at 37° C. for 4-5 hours. Cells were then serum deprived for 1 hour before treatment with recombinant proteins for 20 minutes followed by the addition of 2-NBDG (100 μM) for 10 min at 37° C. in a humidified atmosphere of 5% CO2. Reaction was stopped by adding a twofold volume of ice-cold PBS and the wells were washed again with ice-cold PBS three times. The fluorescent signal before (autofluorescence) and after adding 100 μM 2-NBDG was measured using fluorescent plate reader at 37° C. (Molecular Device using the 485 nmex and 520 nmemiss filter set). The net increase in fluorescence was normalized to the lowest signal (0 cells/well). […]

[7] = system: primary hepatocytes; test: Fatty acid uptake in primary hepatocytes; assay type: cell-based, mouse
Experimental: Uptake of fatty acids by differentiated 3T3-L1 adipocytes or primary mouse adipocytes was assessed using a QBT Fatty Acid Uptake Kit (Molecular Devices). Cells were plated in triplicate in 96-well plates at a concentration of 25,000 cells per well in 100 μl of DMEM/10% FCS. Plates were centrifuged at 1000 rpm for 4 minutes and incubated at 37° Celsius for 4-5 hours. Cells were then serum deprived for 1 hour before treatment with recombinant proteins for 30 minutes followed by the addition of QBT Fatty Acid Uptake solution. […] Plates were incubated in a fluorescent plate reader at 37° Celsius and kinetic readings were acquired every 20 seconds for 30 minutes. Fluorescence values were plotted against time and data was expressed as relative fluorescent units per minutes×10^3.
The liver was pre-perfused through the portal vein with calcium-free buffer (0.5 mM EDTA, HBSS without Ca^2+ and Mg^2+) and next perfused with collagenase (3.5 U/ml Collegenase II (Worthington) 25 mM HEPES, HBSS with Ca^2+ and Mg^2+). […] Viability of isolated hepatocytes was determined by Trypan blue staining (around 85%) and cell density was approximately 60% confluence. […]

[8] = system: Rictor at threonine 1135; test: Western blot, Rictor phosphorylation in 3T3-L1 adipocytes; assay type: cell-based, mouse
Experimental: Following tissue preparation and SDS-PAGE, membranes were incubated with a polyclonal antibody against Akt (Cell Signaling Technology), or Rictor (Cell Signaling); Anti-PGC1 alpha antibody (abcam); a monoclonal antibody against Phospho-Akt Ser473 (Cell Signaling), Phospho-Rictor Thr1135 (Cell Signaling), GAPDH (Cell Signaling), or Mfge8 (R&D Systems). For evaluation of total AKT and total Rictor, membranes that been blotted for phospho-AKT and phospho-Rictor were stripped and reprobed. Plasma membrane and post-plasma membrane fractions were isolated as previously described (Nishiumi, S. & Ashida, H., Biosci Biotechnol Biochem 71, 2343-2346 (2007)).

B1: rMfge8: recombinant Milk Fat Globule Epidermal Growth Factor 8, an integrin ligand, expressed in High 5 cells (protein)
chain: ASGDFCDSSLCLNGGTCLTGQDNDIYCLCPEGFTGLVCNETERGPCSPNPCYNDAKCLVTLDTQRGDIFTEYICQCPVGYSGIHCETETNYYNLDGEYMFTTAVPNTAVPTPAPTPDLSNNLASRCSTQLGMEGGAIADSQISASSVYMGFMGLQRWGPELARLYRTGIVNAWTASNYDSKPWIQVNLLRKMRVSGVMTQGASRAGRAEYLKTFKVAYSLDGRKFEFIQDESGGDKEFLGNLDNNSLKVNMFNPTLEAQYIKLYPVSCHRGCTLRFELLGCELHGCSEPLGLKNNTIPDSQMSASSSYKTWNLRAFGWYPHLGRLDNQGKINAWTAQSNSAKEWLQVDLGTQRQVTGIITQGARDFGHIQYVASYKVAHSDDGVQWTVYEEQGSSKVFQGNLDNNSHKKNIFEKPFMARYVRVLPVSWHNRITLRLELLGC
fatty acid uptake in HepG2 cells [1]: increased | smooth muscle contraction of stomach strips from Mfge8 KO mice [2]: rescued | fatty acid uptake (BODIPY fatty acid analog) [3]: significantly increased | fatty acid uptake in Mfge8−/− cardiac myocytes [4]: rescued | triglyceride content [5]: significantly greater | effect of insulin on glucose uptake [6]: significantly inhibited | fatty acid uptake in Mfge8−/− hepatocytes [7]: rescued | phosphorylation of Rictor at threonine 1135 [8]: phosphorylated
